Experimental findings from paper PMC9851988 are described below.

The assay has as its target His7-SUMO-Arc-C11^CFAS (not stated | E. coli). Kind of assay: BLI. For orientation: In BLI a coated tip is dipped into the sample, and binding shifts an interference pattern.

In turn, anhydrotrypsin (enzyme) came in with an equilibrium response signal relative to His7-SUMO-Arc-C11^CFAS/R11A of 6 fold.
